± gives the uncertainty stated by the source.
B1: Androgen receptor, residues 557 to 632; numbered along this chain, P10275 (parent)
chain: QKTCLICGDEASGCHYGALTCGSCKVFFKRAAEGKQKYLCASRNDCTIDKFRRKNCPSCRLRKCYEAGMTLGARKL

Variants of: B1
Assay: abundance fitness (aPCA) (normalised: wild type 0, dead -1); higher = more abundant; growth selection in yeast, the domain comes from the species named
Conditions: Homo sapiens

Row | Variant | abundance fitness
1 | C21R | -0.895 ± 0.1
2 | A41S | -0.041 ± 0.071
3 | R30W | -0.114 ± 0.17
4 | Y38E | -0.064 ± 0.083
5 | C40G | -0.891 ± 0.092
6 | R74M | -0.056 ± 0.1
7 | H15V | -0.182 ± 0.075
8 | C24K | -0.957 ± 0.079
9 | N44G | 0.026 ± 0.039
10 | N44M | -0.083 ± 0.062
11 | L39S | -0.128 ± 0.031
12 | T20M | -1 ± 0.18
13 | L5S | -0.013 ± 0.044
14 | D49P | -0.482 ± 0.17
15 | L5R | -0.105 ± 0.046
16 | Y16S | -0.408 ± 0.038
17 | R52C | -0.087 ± 0.095
18 | G72C | -0.075 ± 0.13
19 | C24S | -1.1 ± 0.072
20 | A41E | -0.079 ± 0.13
21 | S23N | -0.108 ± 0.082
22 | C21A | -0.732 ± 0.1
23 | G13A | -0.167 ± 0.07
24 | A31T | 0.025 ± 0.064

Row | Variant | abundance fitness
25 | K35G | -0.031 ± 0.039
26 | C7Y | -0.583 ± 0.4
27 | Y38L | -0.046 ± 0.049
28 | S23Q | -0.084 ± 0.042
29 | Q1W | -0.032 ± 0.084
30 | L19P | -0.106 ± 0.23
31 | K25H | -0.011 ± 0.035
32 | R30L | 0.099 ± 0.053
33 | C21D | -1.23 ± 0.32
34 | T47H | -0.026 ± 0.035
35 | C21T | -0.81 ± 0.095
36 | C14H | -0.035 ± 0.12
37 | C4K | -0.87 ± 0.32
38 | G22E | 0.064 ± 0.062
39 | V26P | -0.772 ± 0.13
40 | Q36V | 0.065 ± 0.043
41 | L71F | 0.103 ± 0.073
42 | K63F | -0.347 ± 0.12
43 | A41H | -0.279 ± 0.078
44 | R30S | -0.016 ± 0.049
45 | A32G | -0.001 ± 0.048
46 | T3W | -0.115 ± 0.087
47 | A73W | -0.203 ± 0.071
48 | N44E | -0.031 ± 0.056

Row | Variant | abundance fitness
49 | T3E | -0.148 ± 0.096
50 | D9S | -0.061 ± 0.064
51 | D9G | -0.182 ± 0.049
52 | Y16D | -0.355 ± 0.097
53 | P57C | 0.088 ± 0.062
54 | K37C | -0.185 ± 0.093
55 | K35I | -0.09 ± 0.058
56 | Q36A | -0.019 ± 0.047
57 | L71A | -0.142 ± 0.095
58 | S12R | -0.06 ± 0.046
59 | A32C | -0.023 ± 0.054
60 | V26A | -0.108 ± 0.12
61 | Q36S | -0.094 ± 0.041
62 | G17R | -0.33 ± 0.032
63 | K63E | 0.009 ± 0.19
64 | Q1A | -0.144 ± 0.16
65 | C46S | -0.843 ± 0.081
66 | C24T | -0.902 ± 0.06
67 | C64M | -0.125 ± 0.12
68 | T3L | -0.035 ± 0.075
69 | C40Y | -1.13 ± 0.39
70 | G22A | -0.025 ± 0.056
71 | R74S | -0.032 ± 0.059
72 | C64T | -0.553 ± 0.2

Row | Variant | abundance fitness
73 | H15M | -0.088 ± 0.11
74 | A73Y | -0.166 ± 0.22
75 | N55D | 0.032 ± 0.078
76 | C7V | -1.2 ± 0.34
77 | T20V | 0.04 ± 0.038
78 | L39Q | 0.011 ± 0.041
79 | Y38Q | -0.072 ± 0.086
80 | S12P | -0.077 ± 0.19
81 | T3P | -0.229 ± 0.12
82 | L39M | 0.047 ± 0.045
83 | A32R | -0.155 ± 0.043
84 | A31H | -0.102 ± 0.079
85 | G8E | -0.045 ± 0.075
86 | C24L | -0.898 ± 0.046
87 | R52D | 0.047 ± 0.092
88 | K25D | -0.025 ± 0.03
89 | D45T | -0.091 ± 0.1
90 | N55R | -0.06 ± 0.068
91 | N55W | -0.421 ± 0.28
92 | E33F | -0.343 ± 0.069
93 | C40I | -0.948 ± 0.39
94 | C4G | -0.61 ± 0.099
95 | L71E | -0.114 ± 0.15
96 | D49A | -0.283 ± 0.088

Row | Variant | abundance fitness
97 | K50L | -0.027 ± 0.069
98 | K35N | -0.093 ± 0.064
99 | C21L | -0.993 ± 0.16
100 | L71Y | -0.043 ± 0.065
101 | G8C | -0.319 ± 0.14
102 | C14R | -0.142 ± 0.055
103 | A73F | -0.326 ± 0.12
104 | R52N | -0.072 ± 0.069
105 | N44R | -0.258 ± 0.044
106 | K25A | 0.026 ± 0.022
107 | A31V | -0.128 ± 0.056
108 | K29G | -0.039 ± 0.068
109 | Y38F | -0.097 ± 0.093
110 | G22F | -0.322 ± 0.053
111 | C14A | -0.013 ± 0.07
112 | F27H | -0.805 ± 0.15
113 | D49W | -0.402 ± 0.099
114 | Y38M | -0.036 ± 0.09
115 | A41W | -0.187 ± 0.11
116 | C21M | -0.953 ± 0.12
117 | F27S | -0.983 ± 0.071
118 | A32I | -0.011 ± 0.061
119 | Q1F | 0.16 ± 0.14
120 | A18I | 0.124 ± 0.16

Row | Variant | abundance fitness
121 | S58D | -0.029 ± 0.074
122 | C24N | -0.904 ± 0.094
123 | A18W | -1.07 ± 0.12
124 | R52S | -0.087 ± 0.051
125 | D45W | -0.465 ± 0.25
126 | L71G | -0.128 ± 0.097
127 | K29D | -0.258 ± 0.2
128 | Y65H | -0.1 ± 0.18
129 | E33W | -0.25 ± 0.082
130 | G22M | -0.163 ± 0.052
131 | G22T | -0.06 ± 0.063
132 | K63D | -0.283 ± 0.15
133 | K35E | 0.084 ± 0.058
134 | A41M | -0.186 ± 0.1
135 | E33D | -0.066 ± 0.063
136 | R74I | -0.317 ± 0.13
137 | T20N | -0.441 ± 0.21
138 | G8R | -0.43 ± 0.07
139 | K25V | -0.043 ± 0.023
140 | P57V | -0.037 ± 0.072
141 | R52V | 0.041 ± 0.057
142 | E33V | -0.089 ± 0.044
143 | K29C | -0.49 ± 0.28
144 | D49I | -0.283 ± 0.22

Row | Variant | abundance fitness
145 | H15R | -0.221 ± 0.063
146 | K37T | 0.01 ± 0.077
147 | F27C | -0.833 ± 0.092
148 | K37H | 0.168 ± 0.12
149 | C21G | -0.976 ± 0.099
150 | G22Q | -0.037 ± 0.058
151 | C56T | -0.562 ± 0.16
152 | G22H | -0.152 ± 0.068
153 | G22S | -0.048 ± 0.047
154 | G72K | -0.134 ± 0.14
155 | L19V | -0.035 ± 0.047
156 | S23T | -0.233 ± 0.041
157 | A31S | -0.024 ± 0.059
158 | C40T | -0.554 ± 0.22
159 | G72S | -0.092 ± 0.1
160 | Q36N | -0.134 ± 0.075
161 | C4Y | -0.884 ± 0.4
162 | C46E | -0.542 ± 0.1
163 | C40R | -0.798 ± 0.13
164 | Y65E | -0.092 ± 0.09
165 | N55H | -0.011 ± 0.059
166 | C56D | -0.663 ± 0.22
167 | C21Q | -0.564 ± 0.13
